Results taken from the nanobody polyreactivity screen of Harvey et al. (2022).

Assay: yeast display, Sf9 membrane polyspecificity reagent, FACS + sequencing; frameworks hold sequencing errors
How it was run: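 Galactose induction of a Saccharomyces cerevisiae BJ5465 synthetic nanobody display library ran 36–48 hours. The cells were then stained for 1 hour at 4 °C with 10% biotinylated, detergent-solubilized Sf9 membrane reagent, pulled down on streptavidin microbeads and FACS-sorted into low and high (top ~1%) gates on expression and reagent-binding fluorescence. Labels for polyreactivity follow the gate of origin.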

Sequence | polyreactivity (PSR sort gate)
VQLVESGGGLVQAGVSLRLSCAASGSTFRPYAMGWYRQAPGKERELVAAITGSGGSTYYADSVKGRFTISRDNAKNTVYLQMNSLKPEDTAVYYCNAVSTWRYYYWGQGTQVTVSS | high polyreactivity
QVQLVESGGGLVQAGGSLRLSCAASGSTFAPYAMGWYRQAPGKERELVASISWRGGRTYYADSVKGRFTISRDNAKNTVYLQMNSLKPEDTAVYYCATSRYRVDRWGPPYRYDYWGQGTQVTVSS | high polyreactivity
QVQLVESGGGLVQAGGSLRLSCAASGFTLRLYVMGWYRQAPGKERELVAAITSSGGSTYYADSVKGRFTISRDIAKNTVYLQMNSLKPEDTAVYYCAAVNRKSQLYGYWGQGTQVTVSS | high polyreactivity
QVQLVDSGGGLVQAGGSLRLSCAASGFTIKYYAMVWYRQAPGKERELVATITSGARTNYADSVKGRFTISRDNAKNTVYLQMNSLKPEDTAVYYCATPYSAYWQNERDYWGQGTQVTVSS | high polyreactivity
QVQLVESGGGLVQAGGSLRLSCSASGIIFSTYAKGWYRQAPGKERELVAAITSTGSTNYADSVKGRFTISRDNAKNTVYLQLNSLKPEDTAVYYCAARYAGPSPTDTGHDYWGQGTQVTVSS | low polyreactivity
QVQLVESGGGLVQAGGSLRLSCAASGSIFRRYAMGWYRQAPGKERELVATISYRGGTTYYADSVKVRFTISRDNAKNTVYLQMNSLKPEDTAVYYCNTLYYRGIYDHWGQGTQVTVSS | high polyreactivity
QVQLQESGGGLVQAGGSLRLSCAASGTISDRAGMGWYRQAPAKNAIVATIDRGTNTNYADSVKGRFTISRVNAKNTVYLQMNSLKPEDTAVYNCAADGRYYIYLDYWGQGTQVTVSS | low polyreactivity
QVQLVESGGGLVQAGGSLRLSCAASGSIFAFYVMGWYRQAPGKERELVAAINRGGTNTYYADSVKGRFTISRDNGKNTVYLQMNSLKPEDTAVYYCAAQRYGGMDYWGQGTQVTVSS | high polyreactivity
QVQLVESGGGLVQAGGSLRLSCAASGFISPYAMRWYRQAPGKERELVAVITSSGGSTYYADSVKGRFTISRDNAKNTVYLQMNSLKPEDTAVYYCAARFYFRWYYYGSYANYWGQGTQVTVSS | high polyreactivity
QVQLVESGGGLVQAGGSLRLSCAASGFTFSTYTMGWYRQAPGKERELVARITWSGTRTYYADSVKGRFTISRDNAKNTVYLQMNSLKPEDTAVYYCNAGPYARYYWGQGTQVTVSS | high polyreactivity
QVQLVESGGGLVQAGGSLRLSCAASGRIFLWYAMGWYRQAPGKERELVAAISWDTGNTYYADSVKGRFTISRDNAKNTVYLQINSLKPEDTAVYYCNADNYEWGNNYGYWGQGTQVTVSS | low polyreactivity
QVQLVESGGGFVQAGGSLRLSSAASGLTFAAYAMGWSRQAPGKERELVASISRRGGSTYYADSVKGRFTISRDNAMNTVYLQMNSLKPEDTAVYYCAARSFWGGLRYDYWGQGTQVTVSS | high polyreactivity
HVQLVESGGCLFQAGGSLRLSCAASGRIFPGYAMGWYRQAPGKERELFAAINTSGGRTYYADSVKGRFTISGENAKNTVYLQMNSLKPEDTAVSYCAAVYRSRYDYWGQGTQVTVSS | high polyreactivity
QVQLVESGGGLVQAGGSLRLSCAASGSTFYGYAMGWYRQAPGKERELVAVINYSGGTTSYADSVKGRFTISRDNAKNTVYLQMNSLKPEDTAVYYCAARRRWAILRYRGNYDYWGQGTQVTVSS | high polyreactivity
QVQLVESGGGFVQAGGSLRLSCAASGFTFGWYALGWYRQAPGKERELVAAMSFGGSRTYYADSVKGRFSISRDNAKNTVYLQLNILNPEDTAVYYCNVVVGSYSANARSHYWGQGTEVTVSS | high polyreactivity
QVQLVESGGGLVQAGGRLRLSCAASGITFWTYAMGWYRQAPGKERELVARISKSGARTFYADSVKGRFTISRDNAKNTVYLQMNSLKPEDTAVYYCAADRGPRPVTWYDYWGQGTQVTVSS | high polyreactivity
QVQLVESGGGLVQAGGSLRLSCAASGITFRFYAMGWYRQPPGKERELVAAITSGGGTYYADSVKGRFTISRDNAKNTVYLQMNSLKPEDTAVYYCAAYQYNRKRHNYWGLGTQVTVSS | high polyreactivity
QVQRVESVGGLVQAGGSLRFSCAASGSTFTANAMGWYRQAPGKEREFVAAITQSGGDTYYADSVKGRFTISRDNAKNTVYLQMNSLKPEDSEVYYCAAESAYFVALTHFYTVEFYYWGQGTQGTVSS | low polyreactivity
QVQLVESGGGVVQAGGSLRLSCAASGSIFPENARGWYRQAPGKERELVAAITSSDSSTYYADSVKGRFTISRDNAKNTVYLQMNSLKPEDTAVYYCAAYRVGFRFREYYWGLGTQVTVSS | low polyreactivity
QVQLVESGGGLVQAGGSLRLSCAASGFIFYYYTMGWYRQEPGKEREFVAAITYSGGRTYYADSVKGRFTISRDNAKNTVYLQMNSLKPEDTAVYYCAVALFETGHYYWGQGTQVTVSS | high polyreactivity
QVQLVESGGGLVQAGGILRLSCAASGFIFAYYAMGWYRQAPGKERELVAAITRRGGSTSYADSVKGRFTISRDNAKNTVYLQMNSLKPEDTAVYYCNAVSKYDYGYWGQGTQVTVSS | high polyreactivity
QDQLVESGGGLVQAGGSLRLSCAASGGIFFIYVMGWYRQAPGKERELVAAISGSGGTTYYADSVKGRFTISRDNAKNTVYLQMNSLKPEDTAVFYCNRVSDYTLYYWGQGTQVTVSS | low polyreactivity

Sequence | polyreactivity (PSR sort gate)
QVQLVESGGGLDQAGGSLRLISAASGLTLRRYAMGWYRQAPGKERELVASINTGTSTKYADSVKGRFTISRDNAKNTDYLQLNSLKPEDTAFYYCAARPAAQGYGYWGQGTQVTVSS | high polyreactivity
QVQLVESGGGLVQAGGTLRLSCAASGIIIGSYAMGWYRQAPGKERELVAAITNGARTNYADSVKGRFTISRDNAKNTVYLQMNSLKPEDTAVYYCAADNYFDWYWLFFEYDYWGQGTQVTVSS | high polyreactivity
QVQLVESGGGLVQAGGSLRLSCAASGSTFTFNAMGWSRQAPGKDRELVAAIRWSTGGTYYADSVKGRFTISRDNAKNTVYLQMNSLKPEDTAVYNCAAQFVPYFYFSKYDYWGQGTQVTVSS | low polyreactivity
QVQLEESGGGLVQAGGIRRLSCAASGRIFPYYAMGWYRLAPGKERELVAAISLSGGSTYYADSVKGRFTISRDTAKMSGYLQMTSLKPEDTAVYYGNAVASTSGYYWYPGLGYDYCGQGTQVTVSS | low polyreactivity
QVQLVESGGGLVQAGGSLRLSCAASGIIFSDYAMGWYRQAPGKERELVATITRSVRTSYADSVKGRFTISRDNAKNTVYLQMNSLKPEDTAVYYCNADFVGAVIAYDYLGQGTQVTVSS | low polyreactivity
QVQLVESGGGLVQAGGSLRLSCAASGRIFPGYAMGWYRQAPGKERELVAGISNDASTNYADSVKGRFTISRDNAKNTVYLQMNSLKPEDTAVFYCAAEISYLSVPRYDYWGQGTQVTVSS | low polyreactivity
QVQLVESGGGLVQAGGSLRLSCAASGSIIPVYAMGWDRQAPGKVRQLVAAISSRGGRTYYADSVKGRFKISRDNAKNTVYLQMNSLKPEDTAVYYCASVYATYYRLPSQYDYWGQGTQVTVSS | low polyreactivity
QVQLVESGGGLVQAGGSLRLSCAASGSTFYYNAMGWYRQAPGKERELVAAITFTGGSTYADSVKGRFTISRDNAKNTVYLQLNSLKPEDTAVYYCAATIQGHDYLGTGYDYWGQGTQVTVSS | low polyreactivity
QVQLVESGGGLVQAGGSLRLSSAASGRIFSDYDMGWYRQAHGKERELVAAITSGGITNYADSVKGRFTISRDNAKNTVYLQMNSLKPEDTAVYYCATGRRRYYFREYYYWGQGTQVTVSS | high polyreactivity
QVQLVESGGGLVQAGGSLRLSCSASGSTFGQYAMGWYRHAPGKERELVAAISRGGGSTYYADSVKGRFTISRDNAKYTVYLQMNSLKPEDTAVYYCNALSARSYYWGQGTQVTVSS | high polyreactivity
QVQLVESGGRIVQAGGSLRLSCAASGIIFYLYTMGWYRQAPGKERQFVADISSGTTTYYADSVKGRFTISRDNAKNTVYLQMNSLKPADSAVYYCAAQLFRELYWGQGTQVTVSS | high polyreactivity
QVQLVESGGGLVQAGGRLRLSCAASGLTLRWYAMGWYRQAPGKERELVAVISGSGSTNYADSVKGRFTISRDNAKNTVYLQMNSLKPEDTAVYYCAAQSHLGTPQRFGYWGQGTQVTVSS | low polyreactivity
QVQLVESGGGLVQAGGSLRLSCAASGSNFKRYTMGLYRQAPGKEWELVAAISTSSGSTYYADSVKGRFTISRDNANNSVYLQMNSLKPEDTAVYYCAAVRHRQTYPKYNYWGQGTQVTVSS | high polyreactivity
QVQLVESGGGLVQAGGSLRLSCAASGFTLSNNAMGWYRQAPGKERELVAGLTSGGDSTNYADSVKGRFTISRDNAKNTVYLQMNSLKREDTAVYDCAAQGGTNTPGVVESDYWGQGTQVTVSS | low polyreactivity
QVQLVESGGGLVQAGGSLRLSCAASGRILYSYAMGWYRQAPGKERELVADITQRGGTTDYADSVKGRFTISRDNAKTTVYVQMNSLKPEDTAVYYCNANSYRSYGGRGGVEYDYWGEGTQVTVSS | low polyreactivity
QVQLVESGGGLVQAGGSLRLSCAASGITIYDNDMGWYRQAPWKERELVAGITRTTVGTYYADSVKGRFTISRDNAKNTVYLQMNSLKPEDTAVYYCAATSLAGYYQFDYWGQGTQVTVSS | low polyreactivity
QVQLVESGGGLVQAGGSLRLSCAASGITFTQYAMGWYRQAPGKERELVASITSSGDNTYYADSVKGRFTISRDNAKNTVYLQMNSLKPEDTAVYYCNARYKWSRRKPWGYWGQGTQVTVSS | high polyreactivity
QVQLVESGGGLVQAGGSLRLSCAASGSIFFRYAMGWYRQAPGKERELVARISWGGGRTYYADSVKGRFTISRDNAKNTVYLQMNSLKPEDTAVYYCNRAYWVNPGGFDYWGQGTQVTVSS | high polyreactivity
QVQLVESGGGSVQAGGRLRLRCAASGLIFYYYAMGWYRQAPGKERELVADIDRGGDTYYADSVKGRFTISRDNAKNNVYLQMNSLKPEDTEVYYCAAVDSYGYVPVFGYWGQGTQVTVSS | low polyreactivity
QDQLVESVGGLVQAGGSLRLSCAASGLTISQNAMGWYRQAPGKERELVAAITRSGSTTHYADSVKWRFTISRDNAKNTVYLQMNSLKPEDTAVYYCAAAHSYYGHYYYWGQGTQVTVSS | high polyreactivity
QVQLVESGGGLVQAGGSLRLSCAASGSTFPPYAMGWYRQAPGKERELVAAISWSGSGSTYYADSVKGRFTISRDNAKNTVYLQMNSLKPEDTAVYYCAAGYVRVITPAYYYWGQGTQVTVSS | low polyreactivity
